Key:
[1] = target: pyruvate kinase isoform M2 (PKM2), endogenous in immortalized hepatocytes (human (endogenous in NeHepLxHT)) (UniProt P14618); test: glycerol density gradient centrifugation
[2] = target: pyruvate kinase isoform M2 (PKM2), endogenous in immortalized hepatocytes (human (endogenous in NeHepLxHT)) (UniProt P14618); test: cross-linking; cell lysate treated with 0.1% glutaraldehyde for 20 minutes at 25°C, stopped with 50 mM Tris pH 8.0, SDS-PAGE and western blot for PKM2; control and LHBS-expressing immortalized hepatocytes, HuH-7 and HepG2 cells infected with Ad-HBV-KO or Ad-HBV-WT

Chain of pyruvate kinase isoform M2 (PKM2), endogenous in immortalized hepatocytes, P14618 1-531 (enzyme; other documents disagree on this pair) (P14618 whole entry, canonical isoform): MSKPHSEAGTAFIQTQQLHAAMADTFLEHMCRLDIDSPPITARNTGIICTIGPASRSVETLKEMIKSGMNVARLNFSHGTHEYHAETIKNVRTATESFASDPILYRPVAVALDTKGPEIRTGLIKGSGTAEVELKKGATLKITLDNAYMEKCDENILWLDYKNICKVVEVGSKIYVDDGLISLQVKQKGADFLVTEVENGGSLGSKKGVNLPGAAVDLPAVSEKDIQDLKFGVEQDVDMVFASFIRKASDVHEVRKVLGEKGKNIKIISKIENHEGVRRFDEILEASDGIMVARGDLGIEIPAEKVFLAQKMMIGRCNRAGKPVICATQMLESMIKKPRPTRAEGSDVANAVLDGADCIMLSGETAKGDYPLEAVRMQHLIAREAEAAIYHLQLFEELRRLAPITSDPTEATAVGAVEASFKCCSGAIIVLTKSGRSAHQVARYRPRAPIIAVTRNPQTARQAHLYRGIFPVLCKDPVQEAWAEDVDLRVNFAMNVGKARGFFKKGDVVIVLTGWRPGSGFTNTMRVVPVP

## pyruvate kinase isoform M2 (PKM2), endogenous in immortalized hepatocytes, P14618 1-531 (enzyme; other documents disagree on this pair)
[1]
  stoichiometry N: 2
[2]
  stoichiometry N: 2

Source: article PMC8009439
